Assay results: patent publication US20210063414A1, “METHODS FOR PREVENTING AND/OR TREATING BONE LOSS CONDITIONS BY MODULATING IRISIN” (Dana-Farber Cancer Institute, Inc., priority 2018, published 2021)

Legend:
[1] = molecular target: T1, MLO-Y4 cell surface proteins (Mus musculus, UniProt E9Q9D8); experiment: Crosslinking/co-immunoprecipitation/mass spectrometry (TMT quantitative proteomics) to identify irisin receptors; type: binding; settings: co-precipitated protein Ankrd35 (E9Q9D8_MOUSE)
T1 construct: endogenous in cells; host or cells: MLO-Y4
T1 sequence (E9Q9D8 1-996): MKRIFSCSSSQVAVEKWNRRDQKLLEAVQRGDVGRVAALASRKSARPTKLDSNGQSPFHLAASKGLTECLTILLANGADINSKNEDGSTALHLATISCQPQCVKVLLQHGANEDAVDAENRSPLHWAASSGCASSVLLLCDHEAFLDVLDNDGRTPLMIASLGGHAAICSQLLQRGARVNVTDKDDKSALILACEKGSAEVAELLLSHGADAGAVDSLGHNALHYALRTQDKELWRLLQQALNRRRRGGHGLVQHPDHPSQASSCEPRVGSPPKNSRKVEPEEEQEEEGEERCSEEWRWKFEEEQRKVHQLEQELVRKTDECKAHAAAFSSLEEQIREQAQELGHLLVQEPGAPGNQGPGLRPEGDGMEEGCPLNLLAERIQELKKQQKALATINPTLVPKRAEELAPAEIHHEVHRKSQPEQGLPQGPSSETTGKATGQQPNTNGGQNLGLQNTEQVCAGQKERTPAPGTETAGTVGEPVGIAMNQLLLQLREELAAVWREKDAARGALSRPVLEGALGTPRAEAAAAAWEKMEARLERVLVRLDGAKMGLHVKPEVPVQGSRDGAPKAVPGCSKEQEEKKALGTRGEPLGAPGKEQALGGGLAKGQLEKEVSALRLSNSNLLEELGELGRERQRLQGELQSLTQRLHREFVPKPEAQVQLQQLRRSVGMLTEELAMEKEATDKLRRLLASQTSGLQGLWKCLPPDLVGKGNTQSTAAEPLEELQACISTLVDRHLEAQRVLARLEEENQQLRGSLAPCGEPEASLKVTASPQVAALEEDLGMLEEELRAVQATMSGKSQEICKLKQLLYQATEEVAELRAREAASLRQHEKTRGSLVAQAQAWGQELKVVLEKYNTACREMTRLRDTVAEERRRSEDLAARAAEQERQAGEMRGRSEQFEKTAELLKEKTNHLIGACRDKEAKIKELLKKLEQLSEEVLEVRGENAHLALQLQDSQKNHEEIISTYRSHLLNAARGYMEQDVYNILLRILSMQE
Method in brief: (§1)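 Relative protein abundance came from 6-plex TMT MS3 quantitation on an Orbitrap Fusion Lumos, after in-gel trypsin digestion of Coomassie-stained SDS-PAGE lanes. Input was a Ni-NTA pulldown (250 mM imidazole elution) of lysates from murine MLO-Y4 cells. These cells were treated on ice with His-tagged irisin or adipsin (10 nM, 20 min) in serum-free medium, then crosslinked with 1.5 mM DTSSP for 30 min.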

[2] = molecular target: T2, MLO-Y4 cell surface proteins (Mus musculus, UniProt Q9Z2I9); experiment: as above; type: binding; settings: co-precipitated protein Sucla2 (SUCB1_MOUSE)
T2 construct: endogenous in cells; host or cells: MLO-Y4
T2 sequence (Q9Z2I9 54-463): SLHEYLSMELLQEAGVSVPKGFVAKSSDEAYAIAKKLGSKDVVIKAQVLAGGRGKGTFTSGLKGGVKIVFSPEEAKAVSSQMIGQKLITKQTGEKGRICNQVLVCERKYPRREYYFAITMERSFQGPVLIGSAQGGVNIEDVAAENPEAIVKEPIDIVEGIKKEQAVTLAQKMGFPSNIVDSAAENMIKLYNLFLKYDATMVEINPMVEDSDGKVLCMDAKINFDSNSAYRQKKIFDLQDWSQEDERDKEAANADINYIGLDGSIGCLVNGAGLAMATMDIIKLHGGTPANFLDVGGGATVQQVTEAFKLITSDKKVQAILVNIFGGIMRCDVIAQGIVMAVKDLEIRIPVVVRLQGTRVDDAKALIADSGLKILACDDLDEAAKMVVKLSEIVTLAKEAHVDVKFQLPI
Method in brief: as §1

TMT signal-to-noise ratio [1]: 314.798
TMT signal-to-noise ratio [2]: 50.8753
Substance: adipsin
